Assay results from US20060148057A1, “Thioredoxin mutants and uses thereof” (priority 2002, published 2006).

T1: ASK1 (Homo sapiens, UniProt Q99683)
T1 construct: wild type ASK1 (ASK1-WT, aa 1-1375); expressed in transfected cells; host or cells: BAEC
T1 sequence (Q99683 1-1374): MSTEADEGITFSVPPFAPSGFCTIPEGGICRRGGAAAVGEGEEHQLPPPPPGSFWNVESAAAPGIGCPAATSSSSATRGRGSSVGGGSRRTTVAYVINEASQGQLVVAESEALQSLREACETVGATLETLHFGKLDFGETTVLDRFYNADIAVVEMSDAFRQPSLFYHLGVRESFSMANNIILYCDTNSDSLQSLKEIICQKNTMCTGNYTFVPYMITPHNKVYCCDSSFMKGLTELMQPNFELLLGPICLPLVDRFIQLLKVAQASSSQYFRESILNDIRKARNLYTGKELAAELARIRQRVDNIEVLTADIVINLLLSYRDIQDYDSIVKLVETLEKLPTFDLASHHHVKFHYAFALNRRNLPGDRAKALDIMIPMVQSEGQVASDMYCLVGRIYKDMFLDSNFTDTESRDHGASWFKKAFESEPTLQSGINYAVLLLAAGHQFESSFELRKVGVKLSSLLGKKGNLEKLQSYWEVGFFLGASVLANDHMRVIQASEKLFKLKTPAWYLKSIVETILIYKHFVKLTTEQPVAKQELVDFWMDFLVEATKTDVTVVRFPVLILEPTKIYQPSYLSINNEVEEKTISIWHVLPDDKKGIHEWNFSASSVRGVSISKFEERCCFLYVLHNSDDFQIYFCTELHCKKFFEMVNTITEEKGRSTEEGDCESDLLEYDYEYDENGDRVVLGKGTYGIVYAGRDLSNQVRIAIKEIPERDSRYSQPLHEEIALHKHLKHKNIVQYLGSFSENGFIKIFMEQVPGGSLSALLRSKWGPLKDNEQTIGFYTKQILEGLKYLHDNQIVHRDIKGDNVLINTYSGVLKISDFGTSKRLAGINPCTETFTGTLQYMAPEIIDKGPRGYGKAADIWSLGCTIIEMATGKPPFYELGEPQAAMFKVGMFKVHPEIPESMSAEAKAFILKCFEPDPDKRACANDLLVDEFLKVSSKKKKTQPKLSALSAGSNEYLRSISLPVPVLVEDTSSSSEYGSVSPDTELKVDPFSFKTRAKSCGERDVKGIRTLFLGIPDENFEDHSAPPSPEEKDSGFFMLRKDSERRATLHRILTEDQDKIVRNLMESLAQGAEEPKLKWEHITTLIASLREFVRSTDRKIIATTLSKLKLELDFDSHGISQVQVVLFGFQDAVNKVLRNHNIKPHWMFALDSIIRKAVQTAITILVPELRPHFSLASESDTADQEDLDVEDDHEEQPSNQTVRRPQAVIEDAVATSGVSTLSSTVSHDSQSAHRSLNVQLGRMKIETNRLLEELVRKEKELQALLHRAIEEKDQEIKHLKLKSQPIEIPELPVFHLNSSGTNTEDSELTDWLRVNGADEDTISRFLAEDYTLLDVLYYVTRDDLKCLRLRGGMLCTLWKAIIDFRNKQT


Biological target: T1, ASK1
Test: GST-Trx pull-down assay
Assay type: binding
Settings: for ASK1 bound to GST-Trx: in the presence of 1 mM DTT; for association of GST-Trx with ASK1: in the presence of 1 mM H2O2
Description: GST-Trx pull-down assay: GST fusion protein preparation and GST pull-down assay were performed as described previously. […] Briefly, GST-Trx fusion proteins expressed in Escherichia coli XL-1 blue were affinity purified on glutathione-Sepharose beads (Pharmacia). 400 μg of cell lysates expressing HA-tagged ASK1 were incubated with 10 μg of GST-Trx bound to glutathione-Sepharose in the lysis buffer containing either 1 mM DTT or 1 mM H2O2. The beads were washed 4 times with the lysis buffer before the addition of boiling Laemmli sample buffer. Bound ASK1 proteins were resolved on SDS-PAGE and detected by Western blot with anti-HA.
Hydrogen peroxide dissociates wild type Trx but not Trx-C32S or Trx-C35S from ASK1 in vitro. Association of ASK1 with various Trx proteins - Trx-WT, Trx-CS, Trx-C32S or Trx-C35S in the presence of 1 mM DTT or H202 in an in vitro GST pull-down assay. Bacteria-expressed GST-Trx proteins were purified and protein concentrations were determined by SDS-PAGE (FIG. 2A). […] ASK1 bound to GST-Trx was determined by Western blot with anti-HA.

ASK1 bound to GST-Trx	association of GST-Trx with ASK1	Molecule
bound	disrupted the association	thioredoxin (protein, Flag tag or GST fusion, Flag-tagged or GST fusion) MVKQIESKTAFQEALDAAGDKLVVVDFSATWCGPCKMIKPFFHSLSEKYSNVIFLEVDVDDCQDVASECEVKCMPTFQFFKKGQKVGEFSGANKEKLEATINELV
bound	retained their associations with ASK1	Trx-C32S: C32S single mutant of Trx at the catalytic site, SEQ ID NO:2 (protein) MVKQIESKTAFQEALDAAGDKLVVVDFSATWSGPCKMIKPFFHSLSEKYSNVIFLEVDVDDCQDVASECEVKCMPTFQFFKKGQKVGEFSGANKEKLEATINELV
bound	retained their associations with ASK1	Trx-C35S: C35S single mutant of Trx at the catalytic site, SEQ ID NO:3 (protein) MVKQIESKTAFQEALDAAGDKLVVVDFSATWCGPSKMIKPFFHSLSEKYSNVIFLEVDVDDCQDVASECEVKCMPTFQFFKKGQKVGEFSGANKEKLEATINELV
